Results: US20210139559A1 (XL PROTEIN, published 2021)
Where two headings read alike, the source gives them in different places.

Key:
[1] = biological target: T1, human VEGF165 ligand (human, UniProt P15692-4 27-191); assay: serial dilution mixed with 50 pM human VEGF165 in solution, unbound VEGF165 measured by ELISA
T1 construct: also called VEGF-A165
Protocol: The amount of unbound VEGF₁₆₅ was then measured by a human VEGF-specific ELISA (Human VEGF DuoSet ELISA kit, R&D Systems, CAT. No. DY293B-05).
(§1) Unbound human VEGF₁₆₅ or PDGF-BB was calculated using 4 parameters curve with the absorbance value. And the IC₅₀ of the tested fusion proteins and the reference was calculated using 4 parameters curve with unbound human VEGF₁₆₅ or PDGF-BB.

[2] = biological target: T1, human VEGF165 ligand; assay: cell-based or functional assay
[3] = biological target: T2, human PDGF-BB ligand (human, UniProt P01127 82-190); assay: serial dilution mixed with 1 ng/ml human PDGF-BB in solution, unbound PDGF-BB measured by ELISA
T2 sequence (P01127 82-190): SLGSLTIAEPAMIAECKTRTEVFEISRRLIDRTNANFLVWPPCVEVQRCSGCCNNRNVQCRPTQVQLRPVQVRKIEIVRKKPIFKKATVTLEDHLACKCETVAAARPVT
Protocol: The amount of unbound PDGF-BB was then measured by a human PDGF-BB-specific ELISA (Human PDGF-BB DuoSet ELISA kit, R&D Systems, CAT. No. DY220).
as §1

[4] = biological target: T2, human PDGF-BB ligand; assay: native PAGE electromobility gel shift; alone or together with VEGF165
Protocol: EPS1104P was mixed with VEGF₁₆₅ (#C083, Novoprotein, Shanghai, China), PDGF-BB (#C199, Novoprotein, Shanghai, China) and VEGF+PDGF-BB, and incubated in an ice bath for 30 min. 40 μL of the above three incubation mixtures and EPS1104P were added to 10 μl of 5× Loading buffer (#ES005, Wanshenghaotian, Shanghai, China), respectively, and the four samples were loaded on a native PAGE gel (#NGSH2001-8T, Wanshenghaotian, Shanghai, China). The electrophoresis was run at 70 V for 6 hours. The gel was stained with Coomassie blue and then bleached. […] It is also possible to combine EPS1104P with both VEGF165 and PDGF-BB to form a stable complex.

[5] = biological target: T1, human VEGF165 ligand; assay: cell-based or functional assay; remark: listed apart in the source

T1 sequence (P15692 other isoform, or with tags, fused parts or gaps limits assumed): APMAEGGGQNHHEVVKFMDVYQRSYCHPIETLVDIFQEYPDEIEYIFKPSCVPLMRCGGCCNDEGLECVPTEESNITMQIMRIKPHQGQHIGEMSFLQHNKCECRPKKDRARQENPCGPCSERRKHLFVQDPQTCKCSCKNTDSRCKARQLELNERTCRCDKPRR

B1: PDGFRαD123-(GGGGS)3-PAS(200)-(GGGGS)3-VEGFR1D2/R2D3 (receptor)
chain: QLSLPSILPNENEKVVQLNSSFSLRCFGESEVSWQYPMSEEESSDVEIRNEENNSGLFVTVLEVSSASAAHTGLYTCYYNHTQTEENELEGRHIYIYVPDPDVAFVPLGMTDYLVIVEDDDSAIIPCRTTDPETPVTLHNSEGVVPASYDSRQGFNGTFTVGPYICEATVKGKKFQTIPFNVYALKATSELDLEMEALKTVYKSGETIVVTCAVFNNEVVDLQWTYPGEVKGKGITMLEEIKVPSIKLVYTLTVPEATVKDSGDYECAARQATREVKEMKKVTISVHEKGGGGGSGGGGSGGGGSASPAAPAPASPAAPAPSAPAASPAAPAPASPAAPAPSAPAASPAAPAPASPAAPAPSAPAASPAAPAPASPAAPAPSAPAASPAAPAPASPAAPAPSAPAASPAAPAPASPAAPAPSAPAASPAAPAPASPAAPAPSAPAASPAAPAPASPAAPAPSAPAASPAAPAPASPAAPAPSAPAASPAAPAPASPAAPAPSAPAGGGGSGGGGSGGGGSSDTGRPFVEMYSEIPEIIHMTEGRELVIPCRVTSPNITVTLKKFPLDTLIPDGKRIIWDSRKGFIISNATYKEIGLLTCEATVNGHLYKTNYLTHRQTNTIIDVVLSPSHGIELSVGEKLVLNCTARTELNVGIDFNWEYPSSKHQHKKLVNRDLKTQSGSEMKKFLSTLTIDGVTRSDQGLYTCAASSGLMTKKNSTFVRVHEKHHHHHH
notes: also called EPS1106P
B1 was tested, and the IC50 [1] was 0.555 nM and the “Inhibition of HUVEC cells proliferation, IC50” value (from here on “Inhibition”) [2] was 39.7 nM.

B2: PDGFRαD123-PAS(200)-VEGFR1D2/R2D3 fusion protein (receptor)
chain: QLSLPSILPNENEKVVQLNSSFSLRCFGESEVSWQYPMSEEESSDVEIRNEENNSGLFVTVLEVSSASAAHTGLYTCYYNHTQTEENELEGRHIYIYVPDPDVAFVPLGMTDYLVIVEDDDSAIIPCRTTDPETPVTLHNSEGVVPASYDSRQGFNGTFTVGPYICEATVKGKKFQTIPFNVYALKATSELDLEMEALKTVYKSGETIVVTCAVFNNEVVDLQWTYPGEVKGKGITMLEEIKVPSIKLVYTLTVPEATVKDSGDYECAARQATREVKEMKKVTISVHEKGASPAAPAPASPAAPAPSAPAASPAAPAPASPAAPAPSAPAASPAAPAPASPAAPAPSAPAASPAAPAPASPAAPAPSAPAASPAAPAPASPAAPAPSAPAASPAAPAPASPAAPAPSAPAASPAAPAPASPAAPAPSAPAASPAAPAPASPAAPAPSAPAASPAAPAPASPAAPAPSAPAASPAAPAPASPAAPAPSAPAASDTGRPFVEMYSEIPEIIHMTEGRELVIPCRVTSPNITVTLKKFPLDTLIPDGKRIIWDSRKGFIISNATYKEIGLLTCEATVNGHLYKTNYLTHRQTNTIIDVVLSPSHGIELSVGEKLVLNCTARTELNVGIDFNWEYPSSKHQHKKLVNRDLKTQSGSEMKKFLSTLTIDGVTRSDQGLYTCAASSGLMTKKNSTFVRVHEKHHHHHHA
modifications: glycosylated (as purified from MEXi-293E medium)
notes: also called EPS1108P
B2 was tested, and the IC50 [3] was 66.3 nM, the IC50 [1] was 0.32 nM and the “Inhibition” value [2] was 28.5 nM.

B3: VEGFR1D2/R2D3-PAS(200)-PDGFRαD123 (receptor)
chain: SDTGRPFVEMYSEIPEIIHMTEGRELVIPCRVTSPNITVTLKKFPLDTLIPDGKRIIWDSRKGFIISNATYKEIGLLTCEATVNGHLYKTNYLTHRQTNTIIDVVLSPSHGIELSVGEKLVLNCTARTELNVGIDFNWEYPSSKHQHKKLVNRDLKTQSGSEMKKFLSTLTIDGVTRSDQGLYTCAASSGLMTKKNSTFVRVHEKASPAAPAPASPAAPAPSAPAASPAAPAPASPAAPAPSAPAASPAAPAPASPAAPAPSAPAASPAAPAPASPAAPAPSAPAASPAAPAPASPAAPAPSAPAASPAAPAPASPAAPAPSAPAASPAAPAPASPAAPAPSAPAASPAAPAPASPAAPAPSAPAASPAAPAPASPAAPAPSAPAASPAAPAPASPAAPAPSAPAQLSLPSILPNENEKVVQLNSSFSLRCFGESEVSWQYPMSEEESSDVEIRNEENNSGLFVTVLEVSSASAAHTGLYTCYYNHTQTEENELEGRHIYIYVPDPDVAFVPLGMTDYLVIVEDDDSAIIPCRTTDPETPVTLHNSEGVVPASYDSRQGFNGTFTVGPYICEATVKGKKFQTIPFNVYALKATSELDLEMEALKTVYKSGETIVVTCAVFNNEVVDLQWTYPGEVKGKGITMLEEIKVPSIKLVYTLTVPEATVKDSGDYECAARQATREVKEMKKVTISVHEKGHHHHHH
notes: also called EPS1105P
B3 was tested, and the IC50 [1] was 0.546 nM and the “Inhibition” value [2] was 28.4 nM.

B4: VEGFR1D2/R2D3-(GGGGS)3-PAS(200)-(GGGGS)3-PDGFRαD123 (receptor)
chain: SDTGRPFVEMYSEIPEIIHMTEGRELVIPCRVTSPNITVTLKKFPLDTLIPDGKRIIWDSRKGFIISNATYKEIGLLTCEATVNGHLYKTNYLTHRQTNTIIDVVLSPSHGIELSVGEKLVLNCTARTELNVGIDFNWEYPSSKHQHKKLVNRDLKTQSGSEMKKFLSTLTIDGVTRSDQGLYTCAASSGLMTKKNSTFVRVHEKGGGGSGGGGSGGGGSASPAAPAPASPAAPAPSAPAASPAAPAPASPAAPAPSAPAASPAAPAPASPAAPAPSAPAASPAAPAPASPAAPAPSAPAASPAAPAPASPAAPAPSAPAASPAAPAPASPAAPAPSAPAASPAAPAPASPAAPAPSAPAASPAAPAPASPAAPAPSAPAASPAAPAPASPAAPAPSAPAASPAAPAPASPAAPAPSAPAGGGGSGGGGSGGGGSQLSLPSILPNENEKVVQLNSSFSLRCFGESEVSWQYPMSEEESSDVEIRNEENNSGLFVTVLEVSSASAAHTGLYTCYYNHTQTEENELEGRHIYIYVPDPDVAFVPLGMTDYLVIVEDDDSAIIPCRTTDPETPVTLHNSEGVVPASYDSRQGFNGTFTVGPYICEATVKGKKFQTIPFNVYALKATSELDLEMEALKTVYKSGETIVVTCAVFNNEVVDLQWTYPGEVKGKGITMLEEIKVPSIKLVYTLTVPEATVKDSGDYECAARQATREVKEMKKVTISVHEKGHHHHHH
notes: also called EPS1107P
B4 was tested, and the IC50 [1] was 0.304 nM and the “Inhibition” value [2] was 53.1 nM.

B5: PDGFRαD123-PAS(400)-VEGFR1D2/R2D3 (receptor)
chain: QLSLPSILPNENEKVVQLNSSFSLRCFGESEVSWQYPMSEEESSDVEIRNEENNSGLFVTVLEVSSASAAHTGLYTCYYNHTQTEENELEGRHIYIYVPDPDVAFVPLGMTDYLVIVEDDDSAIIPCRTTDPETPVTLHNSEGVVPASYDSRQGFNGTFTVGPYICEATVKGKKFQTIPFNVYALKATSELDLEMEALKTVYKSGETIVVTCAVFNNEVVDLQWTYPGEVKGKGITMLEEIKVPSIKLVYTLTVPEATVKDSGDYECAARQATREVKEMKKVTISVHEKGASPAAPAPASPAAPAPSAPAASPAAPAPASPAAPAPSAPAASPAAPAPASPAAPAPSAPAASPAAPAPASPAAPAPSAPAASPAAPAPASPAAPAPSAPAASPAAPAPASPAAPAPSAPAASPAAPAPASPAAPAPSAPAASPAAPAPASPAAPAPSAPAASPAAPAPASPAAPAPSAPAASPAAPAPASPAAPAPSAPAASPAAPAPASPAAPAPSAPAASPAAPAPASPAAPAPSAPAASPAAPAPASPAAPAPSAPAASPAAPAPASPAAPAPSAPAASPAAPAPASPAAPAPSAPAASPAAPAPASPAAPAPSAPAASPAAPAPASPAAPAPSAPAASPAAPAPASPAAPAPSAPAASPAAPAPASPAAPAPSAPAASPAAPAPASPAAPAPSAPASDTGRPFVEMYSEIPEIIHMTEGRELVIPCRVTSPNITVTLKKFPLDTLIPDGKRIIWDSRKGFIISNATYKEIGLLTCEATVNGHLYKTNYLTHRQTNTIIDVVLSPSHGIELSVGEKLVLNCTARTELNVGIDFNWEYPSSKHQHKKLVNRDLKTQSGSEMKKFLSTLTIDGVTRSDQGLYTCAASSGLMTKKNSTFVRVHEKHHHHHH
notes: also called EPS1104P
In the case of B5, the binding result [4] is reported as “binds”, the IC50 [1] is reported as 0.495 nM and the “Inhibition” value [5] is reported as 1.43 nM.
